Results: patent US20250327057A1, “NOVEL AMINOACYL-TRNA SYNTHETASE VARIANTS FOR GENETIC CODE EXPANSION IN EUKARYOTES” (VERAXA Biotech GmbH, priority 2021, published 2025)
Entries after “also recorded” stand apart in the source; their conditions may differ.

Tests used:
[1] = test system: iRFP-EGFP^Y39TAG reporter in HEK293T cells; test: Incorporation assay for cyclooctyne-lysine (SCO) by FFC, Example 4; type: cell-based; conditions: ncAA SCO, 15.625 μM to 500 μM, FIG. 5
Description: To test the incorporation efficiency of another ncAA by the new variant PylRS A1, an incorporation assay was performed utilizing HEK293T cells. The cells were co-transfected with a plasmid containing NES-PylRS A1 containing as well the corresponding tRNA^Pyl gene together with the reporter plasmid pCI-iRFP-EGFP^Y39TAG-6His (SEQ ID NO: 97). Different concentrations of SCO were added to the growth medium 4 hours after the transfection of the cells ranging from 15.625 μM to 500 μM SCO. After 20 hours of incubation, the iRFP and EGFP signal was analyzed with a flow cytometer analyzer (LSRFortessa™, BD Biosciences) as mentioned above.

[2] = test system: iRFP-EGFP^Y39TAG reporter in HEK293T cells; test: FFC test of importance of Y306A and Y384F for incorporation of bulky ncAAs, Example 3; type: cell-based
Description: These new PylRS variants as obtained from example 1 were tested in HEK293T cells utilizing a fluorescent reporter by fluorescent flow cytometry (FFC). The reporter contains an infrared fluorescent protein (iRFP) fused to enhanced green fluorescent protein (EGFP) which harbors an amber stop codon at position Y39 and is called iRFP-EGFP^Y39TAG. To analyze the incorporation efficiency for each new PylRS variant, transient transfection with different ncAAs and different amounts of ncAAs were performed.
The iRFP and EGFP signals were measured after 24 hours post transfection. Therefore, HEK293T cells were seeded in 24-well plate 16 hours prior to transfection. For the two-plasmid transfection, 1 μg of total DNA was used per well. The DNA was mixed with 50 μl of DMEM medium without Phenol Red and 3 μl of PEI were added. After 10 seconds of vortexing and a short centrifugation step, the DNA mixture was incubated 15 minutes in the hood, before it was added dropwise to the well. A master mix was prepared for all wells whenever suitable. After four hours of incubation, the medium was aspirated and fresh medium with different concentrations of ncAAs was added. The concentration of ncAA was 250 μM. After 20 hours of incubation, the iRFP and EGFP signal was analyzed with a flow cytometer analyzer (LSRFortessa™, BD Biosciences). Stock solutions for all ncAAs were prepared as described previously (Nikic, I., Kang, J. H., Girona, G. E., Aramburu, I. V. & Lemke, E. A. Labeling proteins on live mammalian cells using click chemistry. Nat. Protoc. 10, 780-791 (2015)).
To test, if the mutations Y306A and Y384F are really important for the incorporation of bulky ncAAs, these amino acids were changed back to their original amino acid residues by site directed mutagenesis in the case of the PylRS AF A1 variant.
The FFC test was with TCO*A, TCO-E and in addition with Boc using the variants PylRS A1, PylRS AF, PylRS AF A1 and PylRS MMA. PylRS MMA has the mutations 306M 309M 348A. FIG. 3 illustrates the data obtained by FFC in bar plots for the different ncAAs used. […] These bar plot illustrates on how much higher the incorporation efficiency is for each variant compared to PylRS AF.

B1: PylRS A1: M. mazei PylRS mutant L309M, C348G, I405R without Y306A/Y384F (SEQ ID NO: 70) (protein)
chain: MDKKPLNTLISATGLWMSRTGTIHKIKHHEVSRSKIYIEMACGDHLVVNNSRSSRTARALRHHKYRKTCKRCRVSDEDLNKFLTKANEDQTSVKVKVVSAPTRTKKAMPKSVARAPKPLENTEAAQAQPSGSKFSPAIPVSTQESVSVPASVSTSISSISTGATASALVKGNTNPITSMSAPVQASAPALTKSQTDRLEVLLNPKDEISLNSGKPFRELESELLSRRKKDLQQIYAEERENYLGKLEREITRFFVDRGFLEIKSPILIPLEYIERMGIDNDTELSKQIFRVDKNFCLRPMLAPNLYNYMRKLDRALPDPIKIFEIGPCYRKESDGKEHLEEFTMLNFGQMGSGCTRENLESIITDFLNHLGIDFKIVGDSCMVYGDTLDVMHGDLELSSAVVGPRPLDREWGIDKPWIGAGFGLERLLKVKHDFKNIKRAARSESYYNGISTNL
[1]
  incorporation of SCO (EGFP signal by FFC): can incorporate SCO efficiently
[2]; TCO*A, TCO-E, Boc, HEK293T
  ability to incorporate bulky ncAAs: better synthetase for bulky ncAAs; also recorded: able to incorporate bulky ncAAs
[2]; ncAA Boc
  incorporation efficiency relative to PylRS AF: up to 4.5 ×
[2]; ncAA Boc, FIG. 3C
  incorporation efficiency (mean GFP/mean iRFP), ranking among variants: highest incorporation efficiency
[2]; ncAA TCO*A, FIG. 3B
  incorporation efficiency (mean GFP/mean iRFP), ranking among variants: best incorporation
[2]; ncAA TCO*A, independent of the ncAA concentration used
  incorporation efficiency relative to PylRS AF: 1.2 ×
[2]; ncAA TCO-E, FIG. 3A
  incorporation efficiency (mean GFP/mean iRFP), ranking among variants: highest incorporation efficiency
[2]; ncAA TCO-E, depending on the concentration used
  incorporation efficiency relative to PylRS AF: up to 30 times

B2: PylRS MMA: M. mazei PylRS mutant Y306M, L309M, C348A (SEQ ID NO: 72) (protein)
chain: MDKKPLNTLISATGLWMSRTGTIHKIKHHEVSRSKIYIEMACGDHLVVNNSRSSRTARALRHHKYRKTCKRCRVSDEDLNKFLTKANEDQTSVKVKVVSAPTRTKKAMPKSVARAPKPLENTEAAQAQPSGSKFSPAIPVSTQESVSVPASVSTSISSISTGATASALVKGNTNPITSMSAPVQASAPALTKSQTDRLEVLLNPKDEISLNSGKPFRELESELLSRRKKDLQQIYAEERENYLGKLEREITRFFVDRGFLEIKSPILIPLEYIERMGIDNDTELSKQIFRVDKNFCLRPMLAPNLMNYMRKLDRALPDPIKIFEIGPCYRKESDGKEHLEEFTMLNFAQMGSGCTRENLESIITDFLNHLGIDFKIVGDSCMVYGDTLDVMHGDLELSSAVVGPIPLDREWGIDKPWIGAGFGLERLLKVKHDFKNIKRAARSESYYNGISTNL
[2]; ncAA TCO-E
  incorporation efficiency relative to PylRS AF: up to 10 ×

B3: PylRS AF A1: PylRS AF variant with 309M, 348G, 405R (SEQ ID NO: 108) (protein)
chain: MDKKPLNTLISATGLWMSRTGTIHKIKHHEVSRSKIYIEMACGDHLVVNNSRSSRTARALRHHKYRKTCKRCRVSDEDLNKFLTKANEDQTSVKVKVVSAPTRTKKAMPKSVARAPKPLENTEAAQAQPSGSKFSPAIPVSTQESVSVPASVSTSISSISTGATASALVKGNTNPITSMSAPVQASAPALTKSQTDRLEVLLNPKDEISLNSGKPFRELESELLSRRKKDLQQIYAEERENYLGKLEREITRFFVDRGFLEIKSPILIPLEYIERMGIDNDTELSKQIFRVDKNFCLRPMLAPNLANYMRKLDRALPDPIKIFEIGPCYRKESDGKEHLEEFTMLNFGQMGSGCTRENLESIITDFLNHLGIDFKIVGDSCMVFGDTLDVMHGDLELSSAVVGPRPLDREWGIDKPWIGAGFGLERLLKVKHDFKNIKRAARSESYYNGISTNL
[2]; ncAA TCO-E, FIG. 3A
  incorporation efficiency (mean GFP/mean iRFP), ranking among variants: highest incorporation efficiency
